{"source": "patent US20250197505A1", "about": "(DREN BIO, published 2025)", "binders": {"B1": {"name": "anti-CD94 antibody clone 18H3 (antibody, V domains shown)", "VH": "EVQLVQSGAEVKKPGESLKISCKGSGYRFTSYWIGWVRQMPGKGLEWMGIIYPGDSDTRYSPSFQGQVIISADKSITTAFLQWSSLKASDTAMYYCARPFDYGGSPGYFDYWGQGTLVTVSS", "VL": "DIQMTQSPSTLSASVGDRVTITCRASQSIRSWLAWYQQKPGKAPKLLIYKASSLESGVPSRFSGSGSGTEFTLTISSLQPDDFATYYCQQYNTFWTFGQGTKVEIK", "notes": "also called 18H3-AF647"}}, "key": {"[1]": {"target": "T1, cynomolgus CD94 expressed on HEK293 cells (cynomolgus monkey, UniProt Q68VD4 1-179)", "T1 construct": "also called cyno-CD94; cynomolgus monkey CD94", "T1 sequence": "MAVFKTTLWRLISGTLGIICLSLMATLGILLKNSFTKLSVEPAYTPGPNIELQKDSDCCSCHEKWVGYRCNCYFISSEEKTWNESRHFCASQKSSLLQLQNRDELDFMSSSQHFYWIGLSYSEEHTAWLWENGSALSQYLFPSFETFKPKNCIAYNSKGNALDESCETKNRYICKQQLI", "test": "flow cytometry, cynomolgus CD94-expressing HEK293 cells", "source_text": "Anti-CD94 hybridoma supernatants were screened on cynomolgus CD94-expressing HEK293 cells by flow cytometry for cross-reactivity to cynomolgus CD94. HP-3D9 is a commercial anti-CD94 antibody that was used as a negative control. Mouse IgG1, IgG2a, IgG2b and IgG3 were used as negative controls. […] Commercially available anti-CD94 antibodies were used to test cynomolgus cross-reactivity. 18H3 was used as a positive control. The MFI of each antibody was normalized to the MFI of its respective isotype.\nCynomolgus CD94-expressing HEK293 cells were seeded in 96-well plates at a density of 100,000 cells per well, incubated with cell viability dye (Thermo Fisher) for 30 minutes on ice and protected from light. The cells were washed once with FACS buffer (PBS with 2% IgG low FBS). Hybridoma supernatants, anti-CD94 antibodies and isotype controls were incubated with cells for 30 minutes on ice and protected from light. […] After incubation, the cells received a final wash in FACS buffer before quantification on the Cytoflex (Beckman Coulter). All data acquisition and fluorescence compensation were performed using CytoFlex (Beckman Coulter, Atlanta, GA). […] CD94 expression was then quantified on this population. […]"}, "[2]": {"target": "T2, human CD94 expressed on cells (human primary NK cells in PBMCs; HEK cells expressing human CD94) (human, UniProt Q13241 1-179)", "T2 sequence (looked up)": "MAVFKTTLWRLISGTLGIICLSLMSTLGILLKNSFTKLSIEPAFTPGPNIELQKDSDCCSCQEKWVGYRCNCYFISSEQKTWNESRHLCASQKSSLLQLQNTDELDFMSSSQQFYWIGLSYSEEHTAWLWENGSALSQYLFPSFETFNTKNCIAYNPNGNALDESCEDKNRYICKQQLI", "test": "cell-based or functional assay"}, "[3]": {"target": "T2, human CD94 expressed on cells (human …)", "test": "competition assay, flow cytometry on CD3-CD56+ NK cells in healthy donor PBMCs; AF647-labelled 18H3 titrated in the presence of Mouse IgG1 control (no competitor)", "description": "FIGS. 5A-5B show the results of competition assays performed for 18H3 anti-CD94 antibody evaluation. For all competition assays, 18H3 was incubated with PBMCs at a concentration of […]. […] Commercially available anti-CD94 antibodies were titrated and incubated with PBMCs concurrently with 18H3. […] To test competition between 18H3 and 1M4/1E4, 1M4 and 1E4 were incubated with cells at concentrations of 8.5 µg/ml and […], respectively. 18H3 was fluorescently tagged with AF647 and incubated with cells concurrently with […].\nHealthy donor PBMCs were seeded in 96-well plates at a density of 100,000 cells per well, incubated with human Fc block (Biolegend) and cell viability dye (Thermo Fisher) for 30 minutes on ice and protected from light. The cells were washed once with FACS buffer (PBS with 2% IgG low FBS). Unconjugated anti-CD94 antibodies at EC80 concentrations, CD3 FITC and CD56 PE antibodies, and APC-labeled anti-CD94 antibodies were incubated with cells for 30 minutes on ice and protected from light. The cells then received a final wash in FACS buffer before quantification on the Cytoflex (Beckman Coulter). All data acquisition and fluorescence compensation were performed using CytoFlex (Beckman Coulter, Atlanta, GA). Data analysis was performed using FlowJo software. […] Anti-CD94 APC was then quantified on the CD3−CD56+NK cell population. […]"}, "[4]": {"target": "T2, human CD94 expressed on cells (human …)", "test": "HLA-E tetramer blocking assay, flow cytometry on CD3-CD56+ NK cells in healthy donor PBMCs; antibody at one saturating concentration, blocked ligand PE-labelled HLA-E tetramer; percent blocking = 100-((percent HLA-E positive with antibody)/(percent HLA-E positive with isotype)*100)", "description": "Healthy donor PBMCs were incubated with anti-CD94 antibodies. PE labeled HLA-E tetramer was then incubated with the cell and antibody mixture, and detected using flow cytometry. For HP-3B1, 131412, 12K45, DX22, 1M4 and 1E4, 2.5 μl of HLA-E tetramer reagent was used, while 5 μl was used for 18H3 and HP-3D9. Saturating concentrations of each antibody was used in this assay. The percent blocking was calculated as 100−((percent HLA-E positive for anti-CD94 antibody)/(percent HLA-E positive for isotype)*100).\nHealthy donor PBMCs were seeded in 96-well plates at a density of 100,000 cells per well, incubated with human Fc block (Biolegend) and cell viability dye (Thermo Fisher) for 30 minutes on ice and protected from light. The cells were washed once with FACS buffer (PBS with 2% IgG low FBS). anti-CD94 antibodies at EC80 concentrations were incubated with cells for 30 minutes on ice and protected from light. After incubation with the anti-CD94 antibodies, the cells were washed and incubated with HLA-E tetramer PE (Creative Biolabs), anti-CD3 pacific blue-labelled, and anti-CD56 FITC-labelled antibodies (Biolegend) for 30 minutes on ice and protected from light. The cells then received a final wash in FACS buffer before quantification on the Cytoflex (Beckman Coulter). All data acquisition and fluorescence compensation were performed using CytoFlex (Beckman Coulter, Atlanta, GA). Data analysis was performed using FlowJo software. NK cells were identified through gating on lymphocytes on the forward and side scatter, followed by doublet and dead cell exclusion, and gated on the CD3−CD56+ population. HLA-E expression was then quantified on the CD3−CD56+NK cell population. Percent blocking was calculated as 100−((percent HLA-E positive for anti-CD94 antibody)/(percent HLA-E positive for isotype)*100)."}}, "data": [{"binder": "B1", "values": [{"measurement": "binding result", "setting": "[1]", "result": "binds"}, {"measurement": "percent decrease in MFI (antibody internalization assay), comparing 0.5 hours to 24 hours at 37° C.", "setting": "[2]", "result": 24, "unit": "%"}, {"measurement": "EC50 (read off the curve)", "setting": "[3]", "result": "~1", "unit": "nM"}, {"measurement": "HLA-E Blocking", "setting": "[4]", "result": 0, "unit": "%"}]}]}
